In patent US20190247399A1, “COMBINATION OF AN ANTI-CD20 ANTIBODY, PI3 KINASE-DELTA INHIBITOR, AND ANTI-PD-1 OR ANTI-PD-L1 ANTIBODY FOR TREATING HEMATOLOGICAL CANCERS” (TG Therapeutics, Inc., priority 2016, published 2019):
Changes are numbered by the printed parent chain. Structures can show the parent of a compound that is named as a salt. Values belong to the molecule of their own block, whether it stands above or below them.

Assays:
[1] = oral TGR-1202 under fasted and fed conditions, pharmacokinetics; conditions: in vivo, 200 mg, single oral dose of 200 mg; for AUC(0-inf): read-out: AUC0-inf, Geometric LS Means; for AUC(0-t): read-out: AUC0-t, Geometric LS Means; for Cmax: read-out: Cmax, Geometric LS Means
[2] = micronized vs non-micronized TGR-1202 formulations, pharmacokinetics; conditions: in vivo, po, 200 mg, single oral dose of 200 mg; for AUC(0-inf): read-out: AUC0-inf, Geometric LS Means; for AUC(0-t): read-out: AUC0-t, Geometric LS Means; for Cmax: read-out: Cmax, Geometric LS Means
[3] = test system: patients with relapsed and refractory hematologic malignancies; conditions: single agent; relapsed or refractory hematologic malignancies; cited from earlier work
PI3K isoforms (Human) α = PI3K isoforms (Human) α (Homo sapiens, UniProt P42336); assay: biochemical
PI3K isoforms (Human) β = PI3K isoforms (Human) β (Homo sapiens, UniProt P42338); assay: biochemical
PI3K isoforms (Human) γ = PI3K isoforms (Human) γ (Homo sapiens, UniProt P48736); assay: biochemical
patients with CLL = conditions: pembrolizumab alone; cited from earlier work
PD-L1 [4] = target: T1, PD-L1 (Homo sapiens, UniProt Q9NZQ7); assay: Octet antibody binding kinetics
Method: (§1) FIGS. 2A-2C are graphs showing the binding kinetics of exemplary anti-PD-L1 antibody CTI-48 against human PD-L1 (FIG. 2A), mouse PD-L1 (FIG. 2B), and cyno PD-L1 (FIG. 2C).
(§2) Octet data analysis was used in determining affinity measurements to assess antibody binding kinetics. 2 mL of the loading sample was prepared at 20 ug/mL (default concentration) in kinetic buffer. Aliquot at least 200 uL into a black 96-well plate. Concentration ranges for the sample were based on the estimated KD of the interaction (if available). […] A 7-point dilution was made into the sample column using kinetic buffer as the sample diluent. The last well of the sample column was used as a reference well later in data analysis, should only contain kinetic buffer.
(§3) Biosensors were hydrated in kinetic buffer (lx PBS, 0.1% BSA, 0.02% Tween20, 0.05% Sodium Azide) at room temperature for 10 minutes.

cynoPDL1 = assay: Octet antibody binding kinetics; set-up: species or system cyno
Method: as §1, §2, §3

PD-L1 [5] = target: T1, PD-L1; assay: ForteBio affinity measurements; conditions: 100 nM antigen, 1:1 binding model
Method: ForteBio affinity measurements were performed generally as previously described (see, e.g., Estep, P. et al., mAbs 5:270-278 (2013)). Briefly, ForteBio affinity measurements were performed by loading IgGs on-line onto AHQ sensors. Sensors were equilibrated off-line in assay buffer for 30 minutes and then monitored on-line for 60 seconds for baseline establishment. Sensors with loaded IgGs were exposed to 100 nM antigen for 5 minutes; afterwards, they were transferred to assay buffer for 5 minutes for off-rate measurement. Kinetics were analyzed using the 1:1 binding model.

SUDHL-1 lymphoma cells = assay: ADCC activity of anti-PD-L1 antibodies; assay type: cell-based; conditions: PD-L1+ lymphoma cells with primary NK cells
Method: Reporter bioassays were performed in order to determine antibody-dependent cell—mediates cytotoxicity (ADCC) of the disclosed anti-PD-L1 antibodies. The assays utilized SUDHL-1 lymphoma cells and donor PBMCs. Various antibodies were tested at concentrations of 1 or 3 μg/ml.
The results of this study, which are shown for exemplary anti-PD-L1 antibody CTI-48 in FIG. 3, are represented by percent cytotoxicity following a 4 hour incubation with the disclosed antibodies.

PD-1:PD-L1 ligation = assay: immunoblockade reporter (NFAT) assay, PD1/PD-L1 Blockade Assay Kit; assay type: cell-based; conditions: Jurkat PD-1 Effector cells and aAPC PD-L1 cells
Method: Immunoblockade assays were performed using a PD1/PD-L1 Blockade Assay Kit (Promega, CS187111) in 96 well plates. Three major events occur in the assay. Event 1: TCR-mediated NFAT activation occurs when engineered Jurkat PD-1 Effector cells and aAPC (artificial antigen presenting cell) PD-L1 cells are engaged through TCR/TCR activator interaction. Event 2: Inhibition of NFAT signal by PD-1:PD-L1 ligation when no blocking antibodies are present. Event 3: Recovery of NFAT signal by addition of anti-PD-1 or anti-PD-L1 blocking antibody.
The day before assay, 25 mL of cell recovery medium (10% FBS/F-12) was made in 50 mL conical tubes for Thaw-and-Use PD-L1 cells by adding 2.5 mL FBS to 22.5 mL F-12. One vial of Thaw-and-Use PD-L1 cells (CS187103) was removed from freezer storage and transferred to the bench on dry ice. The vial was thawed in a 37° C. water bath until cells were just thawed (about 3-4 minutes). The cell suspension was gently mixed in the vial by pipetting up and down. All the cells (0.5 mL) were transferred to a tube labeled “PD-L1 cells” containing 14.5 mL cell recovery medium, followed by gentle inversions. […]
Thaw-and-Use PD-1 Effector cells (CS187105) were transferred into the assay plates, and the plates were incubated for six hours at 37° C. in CO2 incubator. […] Luminescence was measured in a POLARstar Omega plate reader with 0.5 second integration.

[6] = target: T2, binding of PD-L1 and B7.1 (Homo sapiens, UniProt Q9NZQ7); assay: PD-L1/B7.1 inhibitor screening assay; conditions: PD-L1 coated plate, B7.1-biotin
T2 construct: purchased
Description: A commercially available assay kit was used to screen and profile the interaction of the disclosed antibodies and the PD-L1/B7.1 interaction. The kit came in a 96-well format with biotin-labeled B7-1 (CD80), purified PD-L1, streptavidin-labeled HRP, and assay buffer for 100 binding reactions. The kit was used to detect biotin-labeled B7.1 by streptavidin-HRP.
First, PD-L1 was coated on a 96-well plate. Next, either one of the disclosed antibodies, a positive control, a substrate control, or a blank was added to each well and incubated prior to the addition of B7.1-biotin. Finally, the plate was treated with streptavidin-HRP followed by addition of an HRP substrate to produce chemiluminescence, which can then be measured by a chemiluminescence reader.

IFN-γ production = IFN-γ production in mixed lymphocyte reaction (MLR) cultures; assay type: cell-based; conditions: 4-day MLR culture, antibodies at 10 μg/mL, over control levels
Method: FIG. 6 is a bar graph showing the effect of the disclosed PD-L1 antibodies on IFN-γ production. Antibodies were dosed into mixed lymphocyte reaction (MLR) cultures at a concentration of 10 μg/mL. Data were normalized to vehicle control and are presented as combined mean+SEM (n=6). *p<0.05**p<0.01,***p<0.001 indicates statistical significance when compared to appropriate isotype control (hIgG1) using Ordinary one-way ANOVA with Dunnett's multiple comparison post-hoc test.
Antibodies were dosed into mixed lymphocyte reaction (MLR) cultures in order to determine the effects of the disclosed antibodies on IFN-γ production. The fold change in production of IFN-γ was determined after a 4-day MLR culture with antibodies at a concentration of 10 μg/mL. […] Further, many of the tested PD-L1 antibodies elicited a statistically significant increase in IFN-γ production, including a roughly 10-fold increase by CTI-33 and CTI-55 over control levels.

PD-L1 [7] = target: T1, PD-L1; conditions: cited from earlier work
[8] = target: T3, PD-L1 antigen of the ForteBio affinity measurement (Example 7) (UniProt Q9NZQ7 19-238, limits assumed); assay: ForteBio BLI, IgG on AHQ sensors, 100 nM antigen, 1:1 model
[9] = target: T3, PD-L1 antigen of the ForteBio affinity …; assay: ForteBio BLI, IgG on AHQ sensors, 100 nM antigen, 1:1 model, monovalent
[10] = target: T4, PD-L1 expressed on transfected CHO cells (UniProt Q9NZQ7 19-290); assay: competitive FACS on PD-L1+ CHO cells; competitor biotin-labeled PD-1 at 1 µg/ml
T4 construct: whole, on cells; also called PD-L1+cells; PD-L-1+cells
T4 sequence (Q9NZQ7 19-290): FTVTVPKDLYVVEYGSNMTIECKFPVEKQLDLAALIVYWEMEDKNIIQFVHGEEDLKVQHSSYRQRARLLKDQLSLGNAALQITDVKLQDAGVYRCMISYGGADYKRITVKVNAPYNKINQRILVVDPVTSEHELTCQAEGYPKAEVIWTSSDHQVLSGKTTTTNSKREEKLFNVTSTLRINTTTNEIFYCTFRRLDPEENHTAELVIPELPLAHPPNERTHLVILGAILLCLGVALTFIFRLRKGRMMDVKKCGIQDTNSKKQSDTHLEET

T1 sequence (Q9NZQ7 19-290): as above
T3 sequence (Q9NZQ7 19-238 limits assumed): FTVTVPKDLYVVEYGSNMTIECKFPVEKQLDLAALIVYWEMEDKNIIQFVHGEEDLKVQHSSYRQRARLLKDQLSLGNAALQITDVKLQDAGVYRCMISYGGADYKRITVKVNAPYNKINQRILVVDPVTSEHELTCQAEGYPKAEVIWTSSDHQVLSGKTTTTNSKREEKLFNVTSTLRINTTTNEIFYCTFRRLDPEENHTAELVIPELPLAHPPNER
PI3K isoforms (Human) β, sequence (P42338 whole entry, canonical isoform): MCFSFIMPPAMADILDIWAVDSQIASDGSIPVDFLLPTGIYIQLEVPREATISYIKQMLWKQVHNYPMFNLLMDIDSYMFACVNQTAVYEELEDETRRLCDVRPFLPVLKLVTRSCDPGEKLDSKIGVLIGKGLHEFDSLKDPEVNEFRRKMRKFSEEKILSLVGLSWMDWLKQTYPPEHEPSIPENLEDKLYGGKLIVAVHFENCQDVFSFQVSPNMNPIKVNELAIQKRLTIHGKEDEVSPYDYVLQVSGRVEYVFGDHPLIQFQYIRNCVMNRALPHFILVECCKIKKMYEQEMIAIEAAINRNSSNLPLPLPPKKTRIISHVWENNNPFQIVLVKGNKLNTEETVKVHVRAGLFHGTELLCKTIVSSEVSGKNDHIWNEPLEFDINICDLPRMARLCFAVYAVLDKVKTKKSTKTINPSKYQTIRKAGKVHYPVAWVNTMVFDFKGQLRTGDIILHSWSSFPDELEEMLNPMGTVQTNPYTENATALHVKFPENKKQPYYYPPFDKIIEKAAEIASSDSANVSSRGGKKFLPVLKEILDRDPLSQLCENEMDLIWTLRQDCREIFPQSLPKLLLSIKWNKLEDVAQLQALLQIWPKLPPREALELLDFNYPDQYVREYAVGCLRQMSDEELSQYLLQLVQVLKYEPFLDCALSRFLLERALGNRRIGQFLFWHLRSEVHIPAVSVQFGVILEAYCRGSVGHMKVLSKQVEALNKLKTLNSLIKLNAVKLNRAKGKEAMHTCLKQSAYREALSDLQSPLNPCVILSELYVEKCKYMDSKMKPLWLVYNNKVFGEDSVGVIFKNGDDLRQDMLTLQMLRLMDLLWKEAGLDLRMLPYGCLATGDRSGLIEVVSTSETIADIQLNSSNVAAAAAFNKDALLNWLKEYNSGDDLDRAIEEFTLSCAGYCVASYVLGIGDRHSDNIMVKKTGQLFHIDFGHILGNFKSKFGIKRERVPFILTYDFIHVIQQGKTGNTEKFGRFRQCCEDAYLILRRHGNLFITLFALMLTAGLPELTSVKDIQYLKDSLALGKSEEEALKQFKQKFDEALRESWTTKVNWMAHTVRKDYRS
PI3K isoforms (Human) β, sequence (P27986 whole entry partner, canonical isoform): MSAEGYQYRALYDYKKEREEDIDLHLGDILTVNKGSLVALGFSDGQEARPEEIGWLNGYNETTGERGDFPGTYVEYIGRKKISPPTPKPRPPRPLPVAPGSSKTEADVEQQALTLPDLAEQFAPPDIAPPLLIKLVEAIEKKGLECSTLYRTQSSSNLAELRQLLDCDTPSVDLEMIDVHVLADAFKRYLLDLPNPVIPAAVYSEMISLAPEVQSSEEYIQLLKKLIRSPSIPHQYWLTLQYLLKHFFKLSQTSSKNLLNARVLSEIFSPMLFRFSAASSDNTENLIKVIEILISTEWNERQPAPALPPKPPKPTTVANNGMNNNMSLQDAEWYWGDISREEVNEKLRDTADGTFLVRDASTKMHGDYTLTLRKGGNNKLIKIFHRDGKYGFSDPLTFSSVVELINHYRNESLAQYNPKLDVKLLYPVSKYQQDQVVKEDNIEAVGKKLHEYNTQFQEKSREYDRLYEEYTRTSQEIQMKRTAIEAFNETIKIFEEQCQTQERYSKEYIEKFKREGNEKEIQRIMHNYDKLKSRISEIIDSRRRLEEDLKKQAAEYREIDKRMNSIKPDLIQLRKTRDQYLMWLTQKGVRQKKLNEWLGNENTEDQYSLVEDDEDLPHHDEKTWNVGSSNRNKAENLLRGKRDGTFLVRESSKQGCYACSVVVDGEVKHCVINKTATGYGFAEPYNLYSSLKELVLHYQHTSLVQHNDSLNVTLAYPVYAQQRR
T2 sequence (Q9NZQ7 19-238 limits assumed): as the sequence (Q9NZQ7 19-238 limits assumed) above
PI3K isoforms (Human) α, sequence (P42336 whole entry, canonical isoform): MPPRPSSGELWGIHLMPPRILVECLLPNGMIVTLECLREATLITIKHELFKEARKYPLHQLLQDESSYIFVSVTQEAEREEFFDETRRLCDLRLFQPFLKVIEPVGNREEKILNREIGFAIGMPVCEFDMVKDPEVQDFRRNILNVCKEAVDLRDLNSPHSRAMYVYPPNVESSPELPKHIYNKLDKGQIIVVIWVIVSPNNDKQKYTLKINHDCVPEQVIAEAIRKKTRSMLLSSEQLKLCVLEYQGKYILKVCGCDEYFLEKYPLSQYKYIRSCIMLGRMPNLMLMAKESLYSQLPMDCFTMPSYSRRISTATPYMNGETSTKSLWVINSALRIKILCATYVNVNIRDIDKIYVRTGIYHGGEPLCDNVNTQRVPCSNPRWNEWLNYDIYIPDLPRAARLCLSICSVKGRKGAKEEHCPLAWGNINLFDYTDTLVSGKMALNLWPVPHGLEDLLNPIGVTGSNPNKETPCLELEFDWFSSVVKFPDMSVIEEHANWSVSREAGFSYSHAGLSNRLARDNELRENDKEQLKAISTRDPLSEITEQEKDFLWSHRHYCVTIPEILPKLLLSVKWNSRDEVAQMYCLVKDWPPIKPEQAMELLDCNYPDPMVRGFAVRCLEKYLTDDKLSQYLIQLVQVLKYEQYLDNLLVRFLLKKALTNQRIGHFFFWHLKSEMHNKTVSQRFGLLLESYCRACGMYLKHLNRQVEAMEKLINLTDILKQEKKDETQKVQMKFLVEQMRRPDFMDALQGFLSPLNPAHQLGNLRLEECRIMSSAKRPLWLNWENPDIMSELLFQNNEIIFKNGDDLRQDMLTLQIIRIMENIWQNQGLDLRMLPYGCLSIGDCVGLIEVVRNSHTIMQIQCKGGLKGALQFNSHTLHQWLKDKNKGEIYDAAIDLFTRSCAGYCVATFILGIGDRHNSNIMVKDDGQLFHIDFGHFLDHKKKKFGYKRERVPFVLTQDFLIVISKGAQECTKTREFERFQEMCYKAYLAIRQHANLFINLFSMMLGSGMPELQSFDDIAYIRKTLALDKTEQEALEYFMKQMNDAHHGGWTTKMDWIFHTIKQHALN
PI3K isoforms (Human) α, sequence (P27986 whole entry partner, canonical isoform): as the sequence (P27986 whole entry partner, canonical isoform) above
PI3K isoforms (Human) γ, sequence (P48736 whole entry, canonical isoform): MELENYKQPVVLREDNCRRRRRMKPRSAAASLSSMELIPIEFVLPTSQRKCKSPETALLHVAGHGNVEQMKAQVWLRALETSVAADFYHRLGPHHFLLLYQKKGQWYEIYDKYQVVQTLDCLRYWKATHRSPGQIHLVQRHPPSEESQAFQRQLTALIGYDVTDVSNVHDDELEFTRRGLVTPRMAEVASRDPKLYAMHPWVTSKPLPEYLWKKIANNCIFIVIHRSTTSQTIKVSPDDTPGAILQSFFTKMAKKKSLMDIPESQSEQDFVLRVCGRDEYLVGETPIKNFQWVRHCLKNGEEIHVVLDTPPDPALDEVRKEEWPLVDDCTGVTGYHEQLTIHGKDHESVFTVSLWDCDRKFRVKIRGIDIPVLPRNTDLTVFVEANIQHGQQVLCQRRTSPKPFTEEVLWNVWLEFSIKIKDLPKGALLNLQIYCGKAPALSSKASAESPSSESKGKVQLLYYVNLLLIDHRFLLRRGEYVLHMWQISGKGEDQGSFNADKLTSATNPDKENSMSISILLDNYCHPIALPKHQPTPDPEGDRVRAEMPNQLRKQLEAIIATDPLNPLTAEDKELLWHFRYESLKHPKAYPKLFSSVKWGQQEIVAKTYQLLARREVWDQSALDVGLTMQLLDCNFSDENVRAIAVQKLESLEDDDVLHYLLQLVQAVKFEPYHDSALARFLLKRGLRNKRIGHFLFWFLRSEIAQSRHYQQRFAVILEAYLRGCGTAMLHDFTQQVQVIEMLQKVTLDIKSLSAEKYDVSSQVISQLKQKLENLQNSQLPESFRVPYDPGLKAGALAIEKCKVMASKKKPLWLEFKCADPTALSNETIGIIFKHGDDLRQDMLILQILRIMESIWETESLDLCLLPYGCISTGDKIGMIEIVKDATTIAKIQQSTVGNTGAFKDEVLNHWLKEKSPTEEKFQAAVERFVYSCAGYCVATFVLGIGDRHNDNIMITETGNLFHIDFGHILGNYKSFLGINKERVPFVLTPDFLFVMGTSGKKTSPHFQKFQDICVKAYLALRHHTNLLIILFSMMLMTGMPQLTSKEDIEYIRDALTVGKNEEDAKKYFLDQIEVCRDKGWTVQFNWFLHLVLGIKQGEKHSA

Kd (PD-L1 [4]): 0.000847 µM | kdis (PD-L1 [4]): 0.00061 L/s | kon (PD-L1 [4]): 7.20E+05 l/Ms | Kd (cynoPDL1): 0.000555 µM | kdis (cynoPDL1): 0.000635 L/s | kon (cynoPDL1): 1.14E+06 l/Ms | koff (PD-L1 [5]): 0.000633 s⁻¹ | kon (PD-L1 [5]): 768000 M⁻¹ s⁻¹ | Kd (PD-L1 [5]; read-out: IgG KD (M) Monovalent): 8.24e-10 M | EC50, recovery of NFAT signal (PD-1:PD-L1 ligation): 0.0775 mg/L | IC50 for binding inhibition [6]: 0.1816 mg/L
B1: CTI-48: fully human anti-PD-L1 IgG1; HCDR1-3 SEQ ID NO: 11, 19, 27; LCDR1-3 SEQ ID NO: 31, 33, 35 (antibody, chains of the INN, looked up, V domains shown)
VH: EVQLVQSGAEVKKPGSSVKVSCKASGGTFSRSAISWVRQAPGQGLEWMGVIIPAFGEANYAQKFQGRVTITADESTSTAYMELSSLRSEDTAVYYCARGRQMFGAGIDFWGQGTLVTVSS
VL: NFMLTQPHSVSESPGKTVTISCTRSSGSIDSNYVQWYQQRPGSAPTTVIYEDNQRPSGVPDRFSGSIDSSSNSASLTISGLKTEDEADYYCQSYDSNNRHVIFGGGTKLTVL
ADCC activity (SUDHL-1 lymphoma cells): exhibits ADCC activity | fold change in production of IFN-γ (IFN-γ production): comparable response to a clinical control mAb | binding affinity for PD-L1 (PD-L1 [7]): sub-nanomolar

koff [8]: 0.00045 s⁻¹ | kon [8]: 520000 M⁻¹ s⁻¹ | Kd [9]: 0.00086 µM
B3: CTI-57 (antibody, V domains shown)
VH: EVQLVQSGGEVKKPGASVKVSCKASGYTLSSHGITWVRQAPGQGLEWMGWISAHSGHASNAQKVEDRVTMTTDTSTNTAYMELRSLTADDTAVYYCARVWRALYHGMDVWGQGTLVTVSS
VL: LSVLTQPPSVSVAPGQTARITCGGNNIGSKGVHWYQQKPGQAPVLVVYDDSDRPSGIPERFSGSNSGNTATLTISRVEAGDEADYYCQVWDSSSDHWVFGGGTKLTVL

koff [8]: 0.0111 s⁻¹ | kon [8]: 461000 M⁻¹ s⁻¹ | Kd [9]: 0.0241 µM | IC50 [10]: 3.46 mg/L
B4: CTI-58 (antibody, V domains shown)
VH: B3 VH with W100H, R101A
VL: B3 VL

Further lines, the molecule ahead of its results:

Molecule: CC(C)Oc1ccc(-c2nn([C@@H](C)c3oc4ccc(F)cc4c(=O)c3-c3cccc(F)c3)c3ncnc(N)c23)cc1F [TGR-1202, (S)-2-(1-(4-amino-3-(3-fluoro-4-isopropoxyphenyl)-1H-pyrazolo[3,4-d]pyrim-idin-1-yl)ethyl-6-fluoro-3-(3-fluorophenyl)-4H-chromen-4-one p-toluenesulfonic acid (PTSA) salt]
AUC(0-inf) ([1]; Fasting): 8.39 µg·h/mL | AUC(0-t) ([1]; Fasting): 6.03 µg·h/mL | Cmax ([1]; Fasting): 0.177 µg/mL | AUC(0-inf) ([1]; Fed): 14 µg·h/mL | AUC(0-t) ([1]; Fed): 9.69 µg·h/mL | Cmax ([1]; Fed): 0.483 µg/mL | AUC(0-inf) ([2]; Micronized Formulation): 12.4 µg·h/mL | AUC(0-t) ([2]; Micronized Formulation): 9.44 µg·h/mL | Cmax ([2]; Micronized Formulation): 0.372 µg/mL | AUC(0-inf) ([2]; Non-Micronized Formulation): 7.72 µg·h/mL | AUC(0-t) ([2]; Non-Micronized Formulation): 5.91 µg·h/mL | Cmax ([2]; Non-Micronized Formulation): 0.166 µg/mL | hepatic toxicity [3]: no reported hepatic toxicity | tolerability [3]: well-tolerated | IC50 (PI3K isoforms (Human) α): > 10 µM | IC50 (PI3K isoforms (Human) β): 1.12 µM | IC50 (PI3K isoforms (Human) γ): 1.06 µM

Molecule: pembrolizumab: humanized monoclonal IgG4 kappa antibody directed against PD-1
ORR (patients with CLL): 0% | median PFS (patients with CLL): 2.4 months

B2: CTI-07 (antibody, V domains shown)
VH: B3 VH with W100H, R101A, H105Y
VL: B3 VL
koff [8]: 0.0392 s⁻¹ | kon [8]: 492000 M⁻¹ s⁻¹ | Kd [9]: 0.0797 µM
